assay: label from the status in PepcDB records

**Q.** For “MRIGHGFDVHKFGENGSGPLIIGGVRIPYEKGLLAHSDGDVALHAATDALLGAAALGDIGKLFPDTDPAFKGADSRGLLREAYRRILAKGYKLGNLDITIIAQAPKMAPHIPQMRVNLAEDLQCHMDDINVKATTTEQLGFTGRGEGIACEAVVLLVNVEQG”, which protein production is on record?
**A.** Its protein production is “not failed”.

**Q.** For “MRIGVIGTGTIATAVVHGIAGDGHAITVSERSAANAQALAAAYPNVRVASNQVVVEECDILTLGLMAEQAPEILGPLPFRADQQVITLMAGATLEQVAQMVAPARAAAIMMPFPSIAQGGSPIMMQGDADLVAALFGARNRIFAVRDAAEMAAYLCAQAVLSPVARMVDDAAGWLATRVSDPVQGEAFLRALVASSLADTDSASLIEALNTPGGYNQRLRLHMEGAGMGDSLRAGLDALETGA”, which protein production is on record?
**A.** The protein production was “failed”.

**Q.** With “MRIIIVGGGKVGYQVARQCAAWGCDVVLVENDRQKGEKIKGELGLQVVIGDGTKAHFLKKAGAEEADIVVAVTDDDQDNLVICQLAERQFKAKRTLALVNNPGNEKLFRWLGVNQVIGPASLILGLIQERVDMDSTAAMWMQGIKDLKMIQFKLGPEAPVLGRKIKTIPFPNECILVTVVRENTAIVPCGNTVLEEGDLVFALANPAVQAELERVLTGKNDN” as the sequence, how does the protein production read?
**A.** The protein production was “failed”.

**Q.** With “MRILAFPYTHTLSHLSRVLAVALELRRMGHEVVFAGESAKVSFVSQQGFDVVPIHEPDPEMLFGNIRSGKLRFVEDAELLQMLTADIEVIRSLKPDLVLSDGRFSAPLSTHLTNVRHAAIVNASSTEYRALPYVPFFDWMPPWLISRDAMIWKALVRLNLFLEMKLFDNVMKVFKRLSRELNTNRTVTATNCLTGKDITLLADIPEYFPSRNLPASYHYVGPLTWKSVLAPPAWWPLDIPSSPLVYVTMGTTGVSEFFSKLGPSLSTSFFSSIVTTGGQSSELKPMPGKVYVESYLDGDLVMERSDVVICHGGNGTIYQALSHGKPVIGIPTIPDQKFNMRRVEAMGFGKSLDLKQFLEKPSLLADTVKQVLSDHSFRNSAQKIQAVLKSYNAATTSAKILIDSILLEHHHHHH” as the sequence, how does the protein production read?
**A.** The protein production was “failed”.

**Q.** For “MRILILGMGGTIASVKGERGYESALSVSKILKLAGISSEAKIEARDLMNVDSTLIQPSDWERLAKEIEKEVWEYDGIVITHGTDTMAYSASMLSFMLRNPPIPIVLTGSMLPITEKNSDAPFNLRTALEFVKLGIRGIYIAFNGKVMLGVRASKIRSMGFDAFESINYPNVAEIKDDKLRILHIPDFYGDEFFSDIKYEPKVLVIKLIPGLSGDIVREALRLGYKGIILEGYGVGGIPYRGTDLFEVVSSISKRIPVVLTTQAIYDGVDLQRYKVGRIALEAGVIPAGDMTKEATITKLMWILGHTKNIEEVKQLMGKNITGELTRVS”, which protein production is on record?
**A.** The protein production was “not failed”.

**Q.** For “MRILLVSRPHPEGARDPFTSLLPTGLGYLNAVLRENGFTSSLANLSTASWRQVEELLRRERPAILGISVFTHNRFESLRLAALAKKVDPTCLTIFGGPHATHAFESILVKYREVDGVILGEGEETFLDLARAVERGDRSLTGIVGLAYRKGAKVHSVKRPPVADLDVLPLPALHMNDAWGCDVRRQLEFIITSRGCPAACRFCSSPRFWGKSLRFRSPRAMVDEIRAIRDRYGLIYFSLRDDTFTVRKDRVIDFCRLLLEEKVHILWNCQSRVNAVDEEMLIWMRRAGCECVQYGVESGSEKILAYLGKQITPEQVRRAAKATRRAGISLSIYLISGVPGETDDDLQATLTLISNILPHDGHVAPLAYYPGTALFDEAVREGRVGADLFERERGAALYVRRDPFVARSMETLLRALTRVERKARFGPADFTAQREFLGYCHGTNLGQGEWLEAKGDIGKAEALYREIVERQPENPWGWLALGGLHGSRGDVTRAGKAFERAISLVPAHVPAYLALGDLRLEEGDQRGAKQLYETAKRLNPRDTDVGERLRMVVAERGTKKGDT”, which protein production is on record?
**A.** Its protein production is “failed”.

**Q.** With “MRINPGEITKVLEEKIKSFEEKIDLEDTGKVIQVGDGIARAYGLNKVMVSELVEFVETGVKGVAFNLEEDNVGIIILGEYKDIKEGHTVRRLKRIIEVPVGEELLGRVVNPLGEPLDGKGPINAKNFRPIEIKAPGVIYRKPVDTPLQTGIKAIDSMIPIGRGQRELIIGDRQTGKTAIAIDTIINQKGQGVYCIYVAIGQKKSAIARIIDKLRQYGAMEYTTVVVASASDPASLQYIAPYAGCAMGEYFAYSGRDALVVYDDLSKHAVAYRQLSLLMRRPPGREAYPGDIFYLHSRLLERAVRLNDKLGGGSLTALPIVETQANDISAYIPTNVISITDGQIYLEPGLFYAGQRPAINVGLSVSRVGGSAQIKAMKQVAGMLRIDLAQYRELETFAQFATELDPATRAQIIRGQRLMELLKQEQYSPMPVEEQVVVLFAGVRGYLDDLPVEEVRRFEKEFLRFMHEKHQDILDDIKTKKELTSETEEKLKKAIEEFKTTFRV” as the sequence, how does the protein production read?
**A.** Its protein production is “not failed”.

**Q.** Which protein production does the source give for “MRISAWLLCSLSFIAPLSWAESSPADIAAQKQQQILFFNHDDRDIVPDTAVWPWQAIGQLETASGNLCTATLISPHLALTAGHCVVTPPKGEIDNPVALRFLATENGWRYETTEIEALANKTLAKKLKADGEGWIVPPSAAPLDYALIRLKQTPPGIRPLPLWQGSRQELMQALKDNGQRVTQAGYPEDHQETLYRHQDCLITGWVHAAVMAHQCDTLPGDSGSPLMLNSAAGWVLMGIQSSAPDASERDRADNRAVSVTAIRQQLETLAKLSSPKPGSPKLSPK” here?
**A.** The protein production was “failed”.

**Q.** For “MRITSTANPRIKELARLLERKHRDSQRRFLIEGAREIERALQAGIELEQALVWEGGLNPEEQQVYAALGRVGRLALLEVSEAVLKKLSVRDNPAGLIALARMPERTLEEYRPSPDALILVAVGLEKPGNLGAVLRSADAAGAEAVLVAGGVDLYSPQVIRNSTGVVFSLRTLAASESEVLDWIKQHNLPLVATTPHAEALYWEANLRPPVAIAVGPEHEGLRAAWLEAAQTQVRIPMQGQADSLNVSVSAALLLYEALRQRLLRDRLTKTHSTL”, which protein production is on record?
**A.** The protein production was “not failed”.

**Q.** With “MRIVAPVMPRHFDEAQAIDISKYEDVNLIEWRADFLPKDEIVAVAPAIFEKFAGKEIIFTLRTVQEGGNITLSSQEYVDIIKEINAIYNPDYIDFEYFTHKSVFQEMLDFPNLILSYHNFEETPENLMEAFSEMTKLAPRVVKIAVMPQSEQDVLDLMNYTRGFKTLNPEQEFATISMGKLGRLSRFAGDVIGSSWTYVSLDHVSGPGQVTLNDMKRIIEVLEMDISN” as the sequence, how does the protein production read?
**A.** The protein production was “not failed”.

**Q.** Which protein production does the source give for “MRIVPFGAAREVTGSAHLLLAGGRRVLLDCGMFQGKEEARNHAPFGFDPKEVDAVLLTHAHLDHVGRLPKLFREGYRGPVYATRATVLLMEIVLEDALKVMDEPFFGPEDVEEALGHLRPLEYGEWLRLGALSLAFGQAGHLPGSAFVVAQGEGRTLVYSGDLGNREKDVLPDPSLPPLADLVLAEGTYGDRPHRPYRETVREFLEILEKTLSQGGKVLIPTFAVERAQEILYVLYTHGHRLPRAPIYLDSPMAGRVLSLYPRLVRYFSEEVQAHFLQGKNPFRPAGLEVVEHTEASKALNRAPGPMVVLAGSGMLAGGRILHHLKHGLSDPRNALVFVGYQPQGGLGAEIIARPPAVRILGEEVPLRASVHTLGGFSGHAGQDELLDWLQGEPRVVLVHGEEEKLLALGKLLALRGQEVSLARFGEGVPV” here?
**A.** Its protein production is “not failed”.

**Q.** With “MRKIFLACPYSHADAEVVEQRFRACNEVAATIVRAGHVVFSQVSMSHPINLCLAELDRAAIGRLWAPVDAFYMDHLEELIVLDLPGWRDSAGIRREMEFFEAGGQRVSLWSEVEHEFR” as the sequence, how does the protein production read?
**A.** Its protein production is “not failed”.

**Q.** With “MRKIVLFGDSITAGYLDEAVSPVLVDLVKRDIAAMGLEEVAVINAGMPGDTTEDGLKRLNKEVLIEKPDEVVIFFGANDASLDRNITVATFRENLETMIHEIGSEKVILITPPYADSGRRPERPQTRIKELVKVAQEVGAAHNLPVIDLYKAMTVYPGTDEFLQADGLHFSQVGYELLGALIVREIKGRLKPKQA” as the sequence, how does the protein production read?
**A.** The protein production was “not failed”.

**Q.** Which protein production does the source give for “MRKLDRVDMQLVKILSENSRLTYRELADILNTTRQRIARRIDKLKKLGIIRKFTIIPDIDKLGYMYAIVLIKSKVPSDADKVISEISDIEYVKSVEKGVGRYNIIVRLLLPKDIKDAENLISEFLQRIKNAENVEVILISEVRKFEII” here?
**A.** The protein production was “not failed”.
